The values that follow come from publication PMC10237670, “Biochemical properties of naturally occurring human bloom helicase variants”.

For series [1], the target named is T1, WT BLMcore (Homo sapiens, UniProt P54132 636-1298). Put plainly: EMSA; 5 mM MgCl2; distinct shift; estimated apparent KD; 50 mM Tris-HCl pH 7.5, 50 mM KCl, 5 mM MgCl2, 1 mM DTT, 0.1 mg/mL BSA, 40 nM DNA, 30 min room temperature; 5% gel in TBE + 100 mM KCl at 4 C. The settings on record: protein: recombinant; (HisTrap purified); label: 3'-FAM on oAV320 (strand 2); 18 bp duplex, 3' overhang 39 nt on strand 1.

Series [2] has as its target T1, WT BLMcore. The series can be described thus: EMSA; 5 mM MgCl2; smear; estimated apparent KD; 50 mM Tris-HCl pH 7.5, 50 mM KCl, 5 mM MgCl2, 1 mM DTT, 0.1 mg/mL BSA, 40 nM DNA, 30 min room temperature; 5% gel in TBE + 100 mM KCl at 4 C. The following applies: protein: recombinant, (HisTrap purified).

T1 sequence (P54132 636-1298): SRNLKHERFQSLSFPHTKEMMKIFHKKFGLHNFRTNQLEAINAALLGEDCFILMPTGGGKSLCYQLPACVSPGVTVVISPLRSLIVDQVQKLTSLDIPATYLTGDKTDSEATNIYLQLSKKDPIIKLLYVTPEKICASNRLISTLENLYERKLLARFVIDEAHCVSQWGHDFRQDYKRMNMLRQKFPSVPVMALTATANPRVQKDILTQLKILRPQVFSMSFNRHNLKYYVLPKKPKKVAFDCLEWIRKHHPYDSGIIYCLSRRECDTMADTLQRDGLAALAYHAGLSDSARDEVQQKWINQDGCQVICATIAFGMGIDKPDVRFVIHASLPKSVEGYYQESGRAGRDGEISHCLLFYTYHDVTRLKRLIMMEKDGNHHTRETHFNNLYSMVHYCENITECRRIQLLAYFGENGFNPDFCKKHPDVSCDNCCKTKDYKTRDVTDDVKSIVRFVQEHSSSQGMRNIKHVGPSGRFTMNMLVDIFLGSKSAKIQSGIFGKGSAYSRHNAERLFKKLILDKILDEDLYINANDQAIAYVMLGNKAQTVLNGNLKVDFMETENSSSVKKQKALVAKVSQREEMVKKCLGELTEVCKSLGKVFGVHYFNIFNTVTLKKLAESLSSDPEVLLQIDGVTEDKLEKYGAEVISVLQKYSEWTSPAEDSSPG

B1: partial dsDNA with 3' ssDNA overhang (oRC32/FAM-oAV320) (dsDNA)
DNA 1: TGGCGACGGCAGCGAGGCTTAGGGTTAGCGTTAGCGTTAGGGTTTTTTTTTTTTTTT
DNA 2: GCCTCGCTGCCGTCGCCA
For B1, the Kd with WT BLMcore [1] is approximately 79 nM.

B2: G4 DNA with 3' ssDNA overhang (FAM-oRC96) (structured_DNA)
DNA: GGGTTAGGGTTAGGGTTAGGGTTTTTTTTTT
Take B2: the Kd with WT BLMcore [2] (label: 3'-FAM, intramolecular G4 (folded in 100 mM KCl) with 3' T-rich ssDNA tail) was approximately 125 nM.

B3: FAM-dT30 (ssDNA) (ssDNA)
DNA: TTTTTTTTTTTTTTTTTTTTTTTTTTTTTT
Turning to B3, the Kd with WT BLMcore [2] (single strand) is approximately 125 nM.
